Laboratory results: patent publication US20200182882A1

Experiments:
[1] = molecular target: T1, CD20 on a CD20 expressing target cell line (Wil2-S) (UniProt P11836); experiment: cell-based or functional assay
T1 sequence (looked up): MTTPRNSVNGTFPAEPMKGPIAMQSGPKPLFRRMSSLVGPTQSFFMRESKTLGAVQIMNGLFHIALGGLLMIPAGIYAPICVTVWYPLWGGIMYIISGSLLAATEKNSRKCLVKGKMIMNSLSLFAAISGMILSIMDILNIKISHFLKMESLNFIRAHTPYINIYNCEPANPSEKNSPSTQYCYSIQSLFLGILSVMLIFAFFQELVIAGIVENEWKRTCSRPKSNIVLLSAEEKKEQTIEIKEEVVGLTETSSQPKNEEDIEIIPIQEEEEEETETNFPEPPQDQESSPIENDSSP

[2] = molecular target: CD3 (TCR complex subunit) on T cells (Jurkat reporter cells; human PBMC T cells) (human) (UniProt P07766); experiment: cell-based or functional assay
UniProt P07766, sequence (P07766 23-207, one chain of several): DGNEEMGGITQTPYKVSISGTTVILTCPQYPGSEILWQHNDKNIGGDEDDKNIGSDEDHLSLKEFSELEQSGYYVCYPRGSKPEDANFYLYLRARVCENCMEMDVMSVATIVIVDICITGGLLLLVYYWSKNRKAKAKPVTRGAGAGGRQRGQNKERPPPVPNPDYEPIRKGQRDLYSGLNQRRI

B1: αCD20/αCD3 TDB (bispecific antibody, from a related filing, V domains shown)
VH 1: EVQLVESGGGLVQPGGSLRLSCAASGYTFTSYNMHWVRQAPGKGLEWVGAIYPGNGDTSYNQKFKGRFTISVDKSKNTLYLQMNSLRAEDTAVYYCARVVYYSNSYWYFDVWGQGTLVTVSS
VL 1: DIQMTQSPSSLSASVGDRVTITCRASSSVSYMHWYQQKPGKAPKPLIYAPSNLASGVPSRFSGSGSGTDFTLTISSLQPEDFATYYCQQWSFNPPTFGQGTKVEIKR
VH 2: EVQLVQSGAEVKKPGASVKVSCKASGYTFTNYYIHWVRQAPGQGLEWIGWIYPGDGNTKYNEKFKGRATLTADTSTSTAYLELSSLRSEDTAVYYCARDSYSNYYFDYWGQGTLVTVSS
VL 2: DIVMTQSPDSLAVSLGERATINCKSSQSLLNSRTRKNYLAWYQQKPGQPPKLLIYWASTRESGVPDRFSGSGSGTDFTLTISSLQAEDVAVYYCTQSFILRTFGQGTKVEIK
For B1, the EC50 of T cell activation (CD69+/CD25+), Human PBMC Donor 1, in presence of target cells [1] was 5.5 ng/mL, the EC50 of T cell activation (CD69+/CD25+), Human PBMC Donor 2, in presence of target cells [1] was 4.4 ng/mL and the EC50 of luciferase reporter activity, Jurkat/NFκBLuc, in presence of target cells [1] was 1.3 ng/mL. For the same binder, the EC50 of T cell activation (CD69+/CD25+), Human PBMC Donor 1, in presence of target cells [2] was 5.5 ng/mL, the EC50 of T cell activation (CD69+/CD25+), Human PBMC Donor 2, in presence of target cells [2] was 4.4 ng/mL and the EC50 of luciferase reporter activity, Jurkat/NFκBLuc, in presence of target cells [2] was 1.3 ng/mL. The luciferase activity of Jurkat/NFκBLuciferase clone 2 in the presence of a CD20 expressing target cell line, against anti-CD3 homodimer [2] was 1000 fold.
